Assay results taken from article PMC9482650, “Quantitative fragmentomics allow affinity mapping of interactomes” (Nature Communications, 2022).
Blank lines part the entries; values can stand above or below the binder they belong to.

Assays:
Assay in all cases: holdup assay
Parameters in all cases: key: below the threshold = too weak to quantify, mostly under pKd 3.1 to 4
NHERF4_2, Q86UT5 = target: NHERF4_2, Q86UT5
PDZD7_3, Q9H5P4 = target: T1, PDZD7_3, Q9H5P4
T1 sequence (Q9H5P4 857-944, limits assumed, looked up): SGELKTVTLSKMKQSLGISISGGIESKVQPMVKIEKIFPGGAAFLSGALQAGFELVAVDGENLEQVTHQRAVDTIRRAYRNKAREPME

SHANK1, Q9Y566 = target: T2, SHANK1, Q9Y566
T2 sequence (Q9Y566 658-767, limits assumed, looked up): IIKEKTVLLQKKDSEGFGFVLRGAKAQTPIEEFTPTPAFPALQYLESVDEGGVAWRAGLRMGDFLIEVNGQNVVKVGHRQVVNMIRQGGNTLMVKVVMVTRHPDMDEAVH

NHERF3_1, Q5T2W1 = target: T3, NHERF3_1, Q5T2W1
T3 sequence (Q5T2W1 4-100, limits assumed, looked up): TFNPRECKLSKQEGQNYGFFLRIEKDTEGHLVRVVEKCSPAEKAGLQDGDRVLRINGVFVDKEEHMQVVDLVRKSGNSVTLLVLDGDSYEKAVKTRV

TJP2_1, Q9UDY2 = target: TJP2_1, Q9UDY2
LNX1_1, Q8TBB1 = target: LNX1_1, Q8TBB1
Inadl_8, Q8NI35 = target: Inadl_8, Q8NI35
LRRC7, Q96NW7 = target: T4, LRRC7, Q96NW7
T4 sequence (Q96NW7 1440-1537, limits assumed, looked up): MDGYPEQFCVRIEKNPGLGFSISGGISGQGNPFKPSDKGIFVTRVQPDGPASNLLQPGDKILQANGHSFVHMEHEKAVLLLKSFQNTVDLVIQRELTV

DLG1_3, Q12959 = target: DLG1_3, Q12959
NHERF2_2, Q15599 = target: NHERF2_2, Q15599
Inadl_4, Q8NI35 = target: Inadl_4, Q8NI35
LIMK2, P53671 = target: LIMK2, P53671
NHERF3_3, Q5T2W1 = target: T5, NHERF3_3, Q5T2W1
T5 sequence (Q5T2W1 238-333, limits assumed, looked up): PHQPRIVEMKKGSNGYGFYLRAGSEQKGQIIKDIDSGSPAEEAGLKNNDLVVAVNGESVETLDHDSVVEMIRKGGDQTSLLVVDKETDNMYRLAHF

APBA1_2, Q02410 = target: T6, APBA1_2, Q02410
T6 sequence (Q02410 742-832, limits assumed, looked up): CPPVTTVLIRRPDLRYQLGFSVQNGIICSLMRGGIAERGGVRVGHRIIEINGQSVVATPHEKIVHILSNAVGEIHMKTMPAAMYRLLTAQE

DLG4_1, P78352 = target: DLG4_1, P78352
GRIP2_6, Q9C0E4 = target: GRIP2_6, Q9C0E4
RHPN1, Q8TCX5 = target: T7, RHPN1, Q8TCX5
T7 sequence (Q8TCX5 508-602, limits assumed, looked up): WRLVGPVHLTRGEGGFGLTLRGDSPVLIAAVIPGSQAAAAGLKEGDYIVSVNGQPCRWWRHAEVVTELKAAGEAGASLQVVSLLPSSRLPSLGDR

GRIP2_3, Q9C0E4 = target: GRIP2_3, Q9C0E4
CASK, O14936 = target: CASK, O14936
LAP2, Q96RT1 = target: LAP2, Q96RT1
LNX2_3, Q8N448 = target: T8, LNX2_3, Q8N448
T8 sequence (Q8N448 463-564, limits assumed, looked up): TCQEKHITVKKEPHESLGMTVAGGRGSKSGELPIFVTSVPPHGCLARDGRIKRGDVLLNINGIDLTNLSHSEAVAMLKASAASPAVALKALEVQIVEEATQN

FRMPD2_3, Q68DX3 = target: FRMPD2_3, Q68DX3
TJP3_3, O95049 = target: T9, TJP3_3, O95049
T9 sequence (O95049 375-456, limits assumed, looked up): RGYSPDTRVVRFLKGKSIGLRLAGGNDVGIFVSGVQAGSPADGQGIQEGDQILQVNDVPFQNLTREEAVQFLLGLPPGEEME

GOPC, Q9HD26 = target: GOPC, Q9HD26
FRMPD3, Q5JV73 = target: FRMPD3, Q5JV73
DLG3_3, Q92796 = target: T10, DLG3_3, Q92796
T10 sequence (Q92796 374-475, limits assumed, looked up): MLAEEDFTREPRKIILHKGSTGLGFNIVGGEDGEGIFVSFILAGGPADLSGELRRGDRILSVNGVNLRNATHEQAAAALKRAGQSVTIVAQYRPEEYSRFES

APBA3_1, O96018 = target: T11, APBA3_1, O96018
T11 sequence (O96018 389-490, limits assumed, looked up): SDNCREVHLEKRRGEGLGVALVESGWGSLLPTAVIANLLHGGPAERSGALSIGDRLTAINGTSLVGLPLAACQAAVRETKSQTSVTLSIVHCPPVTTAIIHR

[1] = plain residues with an end cap or a label only (N-terminal biotin on a linker: ado-ado)
[2] = plain residues with an end cap or a label only (N-terminal biotin on a linker: ahx)
[3] = plain residues with an end cap or a label only (N-terminal biotin on a linker: ttds)

FRMPD2_3, Q68DX3, sequence (Q68DX3 1073-1166): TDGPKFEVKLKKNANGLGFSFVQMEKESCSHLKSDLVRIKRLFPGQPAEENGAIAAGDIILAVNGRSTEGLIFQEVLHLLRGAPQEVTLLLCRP
DLG4_1, P78352, sequence (P78352 62-152): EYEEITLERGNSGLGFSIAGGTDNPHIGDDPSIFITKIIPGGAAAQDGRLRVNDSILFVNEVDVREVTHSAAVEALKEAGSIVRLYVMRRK
Inadl_4, Q8NI35, sequence (Q8NI35 547-651): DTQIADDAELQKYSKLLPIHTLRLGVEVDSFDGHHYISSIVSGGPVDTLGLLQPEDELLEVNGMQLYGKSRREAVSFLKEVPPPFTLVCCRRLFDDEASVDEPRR
DLG1_3, Q12959, sequence (Q12959 457-571): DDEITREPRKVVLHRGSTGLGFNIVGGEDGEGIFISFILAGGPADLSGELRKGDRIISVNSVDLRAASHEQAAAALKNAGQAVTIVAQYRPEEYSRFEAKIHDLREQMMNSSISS
LAP2, Q96RT1, sequence (Q96RT1 other isoform, or with tags, fused parts or gaps): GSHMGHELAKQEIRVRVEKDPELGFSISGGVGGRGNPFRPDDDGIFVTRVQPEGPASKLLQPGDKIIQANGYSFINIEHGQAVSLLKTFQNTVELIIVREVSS
CASK, O14936, sequence (O14936 487-570): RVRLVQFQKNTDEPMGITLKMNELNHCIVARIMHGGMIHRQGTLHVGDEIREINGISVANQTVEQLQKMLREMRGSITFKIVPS
NHERF2_2, Q15599, sequence (Q15599 142-238): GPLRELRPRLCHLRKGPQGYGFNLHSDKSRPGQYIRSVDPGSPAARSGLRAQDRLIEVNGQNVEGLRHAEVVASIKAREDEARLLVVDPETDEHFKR
LNX1_1, Q8TBB1, sequence (Q8TBB1 261-371): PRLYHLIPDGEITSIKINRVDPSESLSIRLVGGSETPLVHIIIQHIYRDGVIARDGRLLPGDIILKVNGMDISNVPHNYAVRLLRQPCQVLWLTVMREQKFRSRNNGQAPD
NHERF4_2, Q86UT5, sequence (Q86UT5 220-308): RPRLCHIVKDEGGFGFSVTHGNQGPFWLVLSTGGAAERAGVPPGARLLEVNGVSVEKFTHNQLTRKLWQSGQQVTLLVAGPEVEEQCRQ
LIMK2, P53671, sequence (P53671 143-248): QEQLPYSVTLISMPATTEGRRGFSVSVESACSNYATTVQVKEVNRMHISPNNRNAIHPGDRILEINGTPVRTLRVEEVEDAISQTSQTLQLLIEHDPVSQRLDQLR
Inadl_8, Q8NI35, sequence (Q8NI35 1425-1530): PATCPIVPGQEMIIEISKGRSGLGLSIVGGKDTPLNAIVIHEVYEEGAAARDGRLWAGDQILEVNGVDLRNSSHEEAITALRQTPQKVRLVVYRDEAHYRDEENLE
GRIP2_6, Q9C0E4, sequence (Q9C0E4 648-740): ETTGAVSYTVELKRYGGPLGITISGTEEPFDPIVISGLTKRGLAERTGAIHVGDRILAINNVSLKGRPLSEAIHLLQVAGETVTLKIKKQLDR
GRIP2_3, Q9C0E4, sequence (Q9C0E4 238-339): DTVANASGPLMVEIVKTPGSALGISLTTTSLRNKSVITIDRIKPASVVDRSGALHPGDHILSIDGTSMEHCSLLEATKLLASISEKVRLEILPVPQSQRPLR
FRMPD3, Q5JV73, sequence (Q5JV73 12-100): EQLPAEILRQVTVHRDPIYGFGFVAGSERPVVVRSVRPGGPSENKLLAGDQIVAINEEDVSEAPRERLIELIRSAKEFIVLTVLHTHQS
TJP2_1, Q9UDY2, sequence (Q9UDY2 24-128): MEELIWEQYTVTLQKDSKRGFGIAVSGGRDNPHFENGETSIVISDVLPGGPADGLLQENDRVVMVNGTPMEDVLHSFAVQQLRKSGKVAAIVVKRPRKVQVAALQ

B2: APC, P25054 (peptide)
chain: HSGSYLVTSV
pKd (NHERF4_2, Q86UT5; [2]): below the threshold
pKd (PDZD7_3, Q9H5P4; [2]): 5.11
pKd (SHANK1, Q9Y566; [2]): 4.1
pKd (NHERF3_1, Q5T2W1; [2]): below the threshold
pKd (TJP2_1, Q9UDY2; [2]): below the threshold
pKd (LNX1_1, Q8TBB1; [2]): 4.45
pKd (Inadl_8, Q8NI35; [2]): 4.84
pKd (LRRC7, Q96NW7; [2]): 4.14
pKd (DLG1_3, Q12959; [2]): 4.88
pKd (NHERF2_2, Q15599; [2]): below the threshold
pKd (Inadl_4, Q8NI35; [2]): below the threshold
pKd (LIMK2, P53671; [2]): below the threshold
pKd (NHERF3_3, Q5T2W1; [2]): below the threshold
pKd (APBA1_2, Q02410; [2]): 4.03
pKd (DLG4_1, P78352; [2]): 4.38
pKd (GRIP2_6, Q9C0E4; [2]): below the threshold
pKd (RHPN1, Q8TCX5; [2]): 5.16
pKd (GRIP2_3, Q9C0E4; [2]): below the threshold
pKd (CASK, O14936; [2]): below the threshold
pKd (LAP2, Q96RT1; [2]): 4.87
pKd (LNX2_3, Q8N448; [2]): below the threshold
pKd (FRMPD2_3, Q68DX3; [2]): below the threshold
pKd (TJP3_3, O95049; [2]): below the threshold
pKd (GOPC, Q9HD26; [2]): 4.3
pKd (FRMPD3, Q5JV73; [2]): below the threshold
pKd (DLG3_3, Q92796; [2]): 4.71
pKd (APBA3_1, O96018; [2]): below the threshold

B3: DGKK, Q5KSL6 (peptide)
chain: DPLTPSRSQL
pKd (NHERF4_2, Q86UT5; [3]): below the threshold
pKd (PDZD7_3, Q9H5P4; [3]): below the threshold
pKd (SHANK1, Q9Y566; [3]): 4.11
pKd (NHERF3_1, Q5T2W1; [3]): below the threshold
pKd (TJP2_1, Q9UDY2; [3]): below the threshold
pKd (LNX1_1, Q8TBB1; [3]): below the threshold
pKd (Inadl_8, Q8NI35; [3]): below the threshold
pKd (LRRC7, Q96NW7; [3]): below the threshold
pKd (DLG1_3, Q12959; [3]): below the threshold
pKd (NHERF2_2, Q15599; [3]): below the threshold
pKd (Inadl_4, Q8NI35; [3]): below the threshold
pKd (LIMK2, P53671; [3]): below the threshold
pKd (NHERF3_3, Q5T2W1; [3]): below the threshold
pKd (APBA1_2, Q02410; [3]): 3.71
pKd (DLG4_1, P78352; [3]): below the threshold
pKd (GRIP2_6, Q9C0E4; [3]): below the threshold
pKd (RHPN1, Q8TCX5; [3]): below the threshold
pKd (GRIP2_3, Q9C0E4; [3]): below the threshold
pKd (CASK, O14936; [3]): below the threshold
pKd (LAP2, Q96RT1; [3]): below the threshold
pKd (LNX2_3, Q8N448; [3]): below the threshold
pKd (FRMPD2_3, Q68DX3; [3]): below the threshold
pKd (TJP3_3, O95049; [3]): below the threshold
pKd (GOPC, Q9HD26; [3]): below the threshold
pKd (FRMPD3, Q5JV73; [3]): below the threshold
pKd (DLG3_3, Q92796; [3]): below the threshold
pKd (APBA3_1, O96018; [3]): below the threshold

B5: ADRB2, P07550 (peptide)
chain: RNCSTNDSLL
pKd (NHERF4_2, Q86UT5; [2]): below the threshold
pKd (PDZD7_3, Q9H5P4; [2]): 3.57
pKd (SHANK1, Q9Y566; [2]): below the threshold
pKd (NHERF3_1, Q5T2W1; [2]): 3.89
pKd (TJP2_1, Q9UDY2; [2]): below the threshold
pKd (LNX1_1, Q8TBB1; [2]): below the threshold
pKd (Inadl_8, Q8NI35; [2]): below the threshold
pKd (LRRC7, Q96NW7; [2]): below the threshold
pKd (DLG1_3, Q12959; [2]): below the threshold
pKd (NHERF2_2, Q15599; [2]): 3.7
pKd (Inadl_4, Q8NI35; [2]): below the threshold
pKd (LIMK2, P53671; [2]): below the threshold
pKd (NHERF3_3, Q5T2W1; [2]): below the threshold
pKd (APBA1_2, Q02410; [2]): below the threshold
pKd (DLG4_1, P78352; [2]): below the threshold
pKd (GRIP2_6, Q9C0E4; [2]): below the threshold
pKd (RHPN1, Q8TCX5; [2]): 3.94
pKd (GRIP2_3, Q9C0E4; [2]): below the threshold
pKd (CASK, O14936; [2]): below the threshold
pKd (LAP2, Q96RT1; [2]): below the threshold
pKd (LNX2_3, Q8N448; [2]): below the threshold
pKd (FRMPD2_3, Q68DX3; [2]): below the threshold
pKd (TJP3_3, O95049; [2]): below the threshold
pKd (GOPC, Q9HD26; [2]): below the threshold
pKd (FRMPD3, Q5JV73; [2]): below the threshold
pKd (DLG3_3, Q92796; [2]): below the threshold
pKd (APBA3_1, O96018; [2]): below the threshold

Second part, the binder after the results:

pKd (NHERF4_2, Q86UT5; [1]): below the threshold
pKd (PDZD7_3, Q9H5P4; [1]): 4.38
pKd (SHANK1, Q9Y566; [1]): below the threshold
pKd (NHERF3_1, Q5T2W1; [1]): 4.54
pKd (TJP2_1, Q9UDY2; [1]): 3.88
pKd (LNX1_1, Q8TBB1; [1]): below the threshold
pKd (Inadl_8, Q8NI35; [1]): 3.49
pKd (LRRC7, Q96NW7; [1]): below the threshold
pKd (DLG1_3, Q12959; [1]): 4.24
pKd (NHERF2_2, Q15599; [1]): below the threshold
pKd (Inadl_4, Q8NI35; [1]): below the threshold
pKd (LIMK2, P53671; [1]): below the threshold
pKd (NHERF3_3, Q5T2W1; [1]): below the threshold
pKd (APBA1_2, Q02410; [1]): below the threshold
pKd (DLG4_1, P78352; [1]): 4.25
pKd (GRIP2_6, Q9C0E4; [1]): below the threshold
pKd (RHPN1, Q8TCX5; [1]): 4.5
pKd (GRIP2_3, Q9C0E4; [1]): below the threshold
pKd (CASK, O14936; [1]): below the threshold
pKd (LAP2, Q96RT1; [1]): below the threshold
pKd (LNX2_3, Q8N448; [1]): below the threshold
pKd (FRMPD2_3, Q68DX3; [1]): below the threshold
pKd (TJP3_3, O95049; [1]): below the threshold
pKd (GOPC, Q9HD26; [1]): 4.05
pKd (FRMPD3, Q5JV73; [1]): below the threshold
pKd (DLG3_3, Q92796; [1]): 3.82
pKd (APBA3_1, O96018; [1]): below the threshold
B1: NCBP2L, A6PVI3 (peptide)
chain: RGGFGRQTQI

pKd (NHERF4_2, Q86UT5; [1]): below the threshold
pKd (PDZD7_3, Q9H5P4; [1]): below the threshold
pKd (SHANK1, Q9Y566; [1]): below the threshold
pKd (NHERF3_1, Q5T2W1; [1]): 4.43
pKd (TJP2_1, Q9UDY2; [1]): below the threshold
pKd (LNX1_1, Q8TBB1; [1]): below the threshold
pKd (Inadl_8, Q8NI35; [1]): below the threshold
pKd (LRRC7, Q96NW7; [1]): below the threshold
pKd (DLG1_3, Q12959; [1]): below the threshold
pKd (NHERF2_2, Q15599; [1]): below the threshold
pKd (Inadl_4, Q8NI35; [1]): below the threshold
pKd (LIMK2, P53671; [1]): below the threshold
pKd (NHERF3_3, Q5T2W1; [1]): below the threshold
pKd (APBA1_2, Q02410; [1]): 4.02
pKd (DLG4_1, P78352; [1]): below the threshold
pKd (GRIP2_6, Q9C0E4; [1]): 4.02
pKd (RHPN1, Q8TCX5; [1]): below the threshold
pKd (GRIP2_3, Q9C0E4; [1]): below the threshold
pKd (CASK, O14936; [1]): 3.55
pKd (LAP2, Q96RT1; [1]): below the threshold
pKd (LNX2_3, Q8N448; [1]): below the threshold
pKd (FRMPD2_3, Q68DX3; [1]): 4.23
pKd (TJP3_3, O95049; [1]): 3.86
pKd (GOPC, Q9HD26; [1]): below the threshold
pKd (FRMPD3, Q5JV73; [1]): 3.9
pKd (DLG3_3, Q92796; [1]): below the threshold
pKd (APBA3_1, O96018; [1]): below the threshold
B4: NRXN3_rs746444206, Q9Y4C0 (peptide)
chain: QKNKDKEYYV
